± gives the standard deviation of the averaged measurements.
B1: library; a variant is named by its letters at N, in order (parent)
chain: AATGTTGTTGATGCAACCATAAAGTGATATTTAATAATTATTTATAATCAGCAACTTAACCACAAAACAACCATATATTGATATNTCACAAAACAACCATAANTTGATATTTTTGTGAATCGAGTATTTCAGCAAAACTACTGCAGTAAGAA

What was measured:
[1] = variants of: B1; experiment: relative integration efficiency (T-LR orientation) vs wild-type transposon end (log2 (normalized fold change)); transposon end mutated: left end; higher = more efficient transposition; conditions: with VchCAST RNA-guided transposition machinery (E. coli BL21(DE3) host, lacZ target)
Outline: (§1)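 In E. coli BL21(DE3), a T7-driven effector plasmid was paired with a pUC57 mini-transposon donor containing 1549 left-end or 1849 right-end barcoded transposon variants. Cells grew on plates with 0.1 mM IPTG at 37°C for 18 h. Relative integration efficiency was derived from Illumina reads of genomic integration junctions against input plasmids, as a log-transformed output/input barcode fold change normalised to reference barcodes.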

[2] = variants of: B1; experiment: relative integration efficiency (T-RL orientation) vs wild-type transposon end (log2 (normalized fold change)); transposon end mutated: left end; higher = more efficient transposition; conditions: with VchCAST RNA-guided transposition machinery (E. coli BL21(DE3) host, lacZ target)
Outline: as §1

Variant | relative integration efficiency (log2) [1] | relative integration efficiency (log2) [2]
AATGTTGTTGATGCAACCATAAAGTGATATTTAATAATTATTTATAATCAGCAACTTAACCACAAAACAACCATATATTGATATCTCACAAAACAACCATAAGTTGATATTTGGTGTCCGATCTGATTTCAGCAAAACTACTGCAGTAAGAA [CG T113G T114G G115T T116G G117T A118C A119C T120G C121A G122T A123C G124T T125G] | -0.192 ± 0.1 | -0.0695 ± 0.04
AATGTTGTTGATGCAACCATAAAGTGATATTTAATAATTATTTATAATCAGCAACTTAACCACAAAACAACCATATATTGATATCTCACAAAACAACCATAAGTTGATATTAATGTGAATCGAGTATTTCAGCAAAACTACTGCAGTAAGAA [CG T112A T113A] | -0.503 ± 0.53 | -0.318 ± 0.2
AATGTTGTTGATGCAACCATAAAGTGATATTTAATAATTATTTATAATCAGCAACTTAACCACAAAACAACCATATATTGATATCTCACAAAACAACCATAAGTTGATATGGGGGTGAATCGAGTATTTCAGCAAAACTACTGCAGTAAGAA [CG T111G T112G T113G T114G] | -0.443 ± 0.72 | -0.798 ± 0.34
AATGTTGTTGATGCAACCATAAAGTGATATTTAATAATTATTTATAATCAGCAACTTAACCACAAAACAACCATATATTGATATCTCACAAAACAACCATAAGTTGATATTTCTGTGAATCGAGTATTTCAGCAAAACTACTGCAGTAAGAA [CG T113C] | 0.405 ± 0.02 | 0.263 ± 0.16
AATGTTGTTGATGCAACCATAAAGTGATATTTAATAATTATTTATAATCAGCAACTTAACCACAAAACAACCATATATTGATATCTCACAAAACAACCATAAGTTGATATTTGTGTGAATCGAGTATTTCAGCAAAACTACTGCAGTAAGAA [CG T113G] | 0.451 ± 0.17 | -0.0711 ± 0.12
AATGTTGTTGATGCAACCATAAAGTGATATTTAATAATTATTTATAATCAGCAACTTAACCACAAAACAACCATATATTGATATCTCACAAAACAACCATAAGTTGATATTTATGTGAATCGAGTATTTCAGCAAAACTACTGCAGTAAGAA [CG T113A] | -0.342 ± 0.22 | -0.277 ± 0.047
AATGTTGTTGATGCAACCATAAAGTGATATTTAATAATTATTTATAATCAGCAACTTAACCACAAAACAACCATATATTGATATCTCACAAAACAACCATAAGTTGATATTTGGGTGAATCGAGTATTTCAGCAAAACTACTGCAGTAAGAA [CG T113G T114G] | -0.0365 ± 0.41 | -0.199 ± 0.073
AATGTTGTTGATGCAACCATAAAGTGATATTTAATAATTATTTATAATCAGCAACTTAACCACAAAACAACCATATATTGATATCTCACAAAACAACCATAAGTTGATATTAAACTGAATCGAGTATTTCAGCAAAACTACTGCAGTAAGAA [CG T112A T113A T114A G115C] | -0.584 ± 1 | 0.0734 ± 0.12
AATGTTGTTGATGCAACCATAAAGTGATATTTAATAATTATTTATAATCAGCAACTTAACCACAAAACAACCATATATTGATATCTCACAAAACAACCATAAGTTGATATTTAAGTGAATCGAGTATTTCAGCAAAACTACTGCAGTAAGAA [CG T113A T114A] | -0.122 ± 0.087 | -0.426 ± 0.25
AATGTTGTTGATGCAACCATAAAGTGATATTTAATAATTATTTATAATCAGCAACTTAACCACAAAACAACCATATATTGATATCTCACAAAACAACCATAAGTTGATATGGTTGTGAATCGAGTATTTCAGCAAAACTACTGCAGTAAGAA [CG T111G T112G] | -0.977 ± 0.75 | -0.622 ± 0.16
AATGTTGTTGATGCAACCATAAAGTGATATTTAATAATTATTTATAATCAGCAACTTAACCACAAAACAACCATATATTGATATCTCACAAAACAACCATAAGTTGATATGTTTGTGAATCGAGTATTTCAGCAAAACTACTGCAGTAAGAA [CG T111G] | 0.0369 ± 0.43 | -0.195 ± 0.25
AATGTTGTTGATGCAACCATAAAGTGATATTTAATAATTATTTATAATCAGCAACTTAACCACAAAACAACCATATATTGATATCTCACAAAACAACCATAAGTTGATATCTTTGTGAATCGAGTATTTCAGCAAAACTACTGCAGTAAGAA [CG T111C] | -0.338 ± 0.58 | -0.142 ± 0.1
AATGTTGTTGATGCAACCATAAAGTGATATTTAATAATTATTTATAATCAGCAACTTAACCACAAAACAACCATATATTGATATCTCACAAAACAACCATAAGTTGATATTTAACAGAATCGAGTATTTCAGCAAAACTACTGCAGTAAGAA [CG T113A T114A G115C T116A] | -0.0852 ± 0.079 | 0.0572 ± 0.12
AATGTTGTTGATGCAACCATAAAGTGATATTTAATAATTATTTATAATCAGCAACTTAACCACAAAACAACCATATATTGATATCTCACAAAACAACCATAAGTTGATATTGGGTTGAATCGAGTATTTCAGCAAAACTACTGCAGTAAGAA [CG T112G T113G T114G G115T] | -0.51 ± 0.098 | -0.359 ± 0.072
AATGTTGTTGATGCAACCATAAAGTGATATTTAATAATTATTTATAATCAGCAACTTAACCACAAAACAACCATATATTGATATCTCACAAAACAACCATAAGTTGATATTGGTGTGAATCGAGTATTTCAGCAAAACTACTGCAGTAAGAA [CG T112G T113G] | -0.314 ± 0.34 | -0.443 ± 0.12
AATGTTGTTGATGCAACCATAAAGTGATATTTAATAATTATTTATAATCAGCAACTTAACCACAAAACAACCATATATTGATATCTCACAAAACAACCATAAGTTGATATTGTTGTGAATCGAGTATTTCAGCAAAACTACTGCAGTAAGAA [CG T112G] | -0.249 ± 0.13 | -0.63 ± 0.13
AATGTTGTTGATGCAACCATAAAGTGATATTTAATAATTATTTATAATCAGCAACTTAACCACAAAACAACCATATATTGATATCTCACAAAACAACCATAAGTTGATATTCTTGTGAATCGAGTATTTCAGCAAAACTACTGCAGTAAGAA [CG T112C] | -0.138 ± 0.38 | -0.258 ± 0.13
AATGTTGTTGATGCAACCATAAAGTGATATTTAATAATTATTTATAATCAGCAACTTAACCACAAAACAACCATATATTGATATCTCACAAAACAACCATAAGTTGATATTATTGTGAATCGAGTATTTCAGCAAAACTACTGCAGTAAGAA [CG T112A] | -0.239 ± 0.61 | -0.304 ± 0.19
AATGTTGTTGATGCAACCATAAAGTGATATTTAATAATTATTTATAATCAGCAACTTAACCACAAAACAACCATATATTGATATCTCACAAAACAACCATAAGTTGATATTTGGTGGAATCGAGTATTTCAGCAAAACTACTGCAGTAAGAA [CG T113G T114G G115T T116G] | -0.271 ± 0.14 | -0.144 ± 0.053

— the supplement of paper PMC10201428
